Data: patent publication US20180037644A1 (Pfizer, published 2018)
Where a chain is given by its changes, count along the chain named.

T1: human IL-33 (mm2) (human, UniProt O95760 112-270)
T1 chain: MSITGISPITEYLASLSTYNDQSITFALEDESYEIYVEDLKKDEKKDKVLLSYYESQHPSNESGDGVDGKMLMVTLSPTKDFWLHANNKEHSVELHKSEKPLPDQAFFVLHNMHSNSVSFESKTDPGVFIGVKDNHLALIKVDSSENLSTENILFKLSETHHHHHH

T2: cynomolgus monkey IL-33 (cys mut) (cynomolgus monkey)
T2 chain: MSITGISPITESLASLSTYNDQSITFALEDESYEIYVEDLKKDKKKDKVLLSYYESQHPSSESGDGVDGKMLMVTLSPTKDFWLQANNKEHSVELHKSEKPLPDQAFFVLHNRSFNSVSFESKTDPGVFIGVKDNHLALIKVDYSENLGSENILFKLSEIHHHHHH

B1: IL33-153 (antibody, human IgG1, kappa, V domains shown)
VH: EVQLVESGGGLVQPGGSLRLSCAASGFTFSSYWMYWVRQAPGKGLEWVASITPNAGEDYYPDSVKGRFTISRDNAKNSLYLQMNSLRAEDTAVYYCARGHYYYTSYSLGYWGQGTLVTVSS
VL: DIQMTQSPSSLSASVGDRVTITCKASQNINKHLDWYQQKPGKAPKLLIYFTNNLQTGVPSRFSGSGSGTDFTLTISSLQPEDFATYYCFQYNQGWTFGGGTKVEIKR
B2: IL33-186 (antibody, human IgG1, kappa, V domains shown)
VH: B1 VH with S50A, A55G, D58T, D62E
VL: B1 VL
B3: IL33-175 (antibody, human IgG1, kappa, V domains shown)
VH: B1 VH with S50A, D58T, D62E
VL: B1 VL with Q93N
B4: IL33-155 (antibody, human IgG1, kappa, V domains shown)
VH: B1 VH with S50A, A55G
VL: B1 VL
B5: IL33-157 (antibody, human IgG1, kappa, V domains shown)
VH: B1 VH with S50A
VL: B1 VL
B6: IL33-156 (antibody, human IgG1, kappa, V domains shown)
VH: B1 VH with S50A, A55G, D62E
VL: B1 VL
B7: IL33-170 (antibody, human IgG1, kappa, V domains shown)
VH: B1 VH with S50A, A55G, D62E
VL: B1 VL with Q93N
B8: IL33-154 (antibody, human IgG1, kappa, V domains shown)
VH: B1 VH with D62E
VL: B1 VL
B9: IL33-187 (antibody, human IgG1, kappa, V domains shown)
VH: B1 VH with S50A, D58T
VL: B1 VL
B10: IL33-188 (antibody, human IgG1, kappa, V domains shown)
VH: B1 VH with S50A, D58T, D62E
VL: B1 VL
B11: IL33-168 (antibody, human IgG1, kappa, V domains shown)
VH: B1 VH with D62E
VL: B1 VL with Q93N
B12: IL33-171 (antibody, human IgG1, kappa, V domains shown)
VH: B1 VH with S50A
VL: B1 VL with Q93N
B13: IL33-169 (antibody, human IgG1, kappa, V domains shown)
VH: B1 VH with S50A, A55G
VL: B1 VL with Q93N
B14: IL33-172 (antibody, human IgG1, kappa, V domains shown)
VH: B1 VH with S50A, D62E
VL: B1 VL with Q93N
B15: IL33-158 (antibody, human IgG1, kappa)
heavy: EVQLVESGGGLVQPGGSLRLSCAASGFTFSSYWMYWVRQAPGKGLEWVAAITPNAGEDYYPESVKGRFTISRDNAKNSLYLQMNSLRAEDTAVYYCARGHYYYTSYSLGYWGQGTLVTVSSASTKGPSVFPLAPSSKSTSGGTAALGCLVKDYFPEPVTVSWNSGALTSGVHTFPAVLQSSGLYSLSSVVTVPSSSLGTQTYICNVNHKPSNTKVDKKVEPKSCDKTHTCPPCPAPEAAGAPSVFLFPPKPKDTLMISRTPEVTCVVVDVSHEDPEVKFNWYVDGVEVHNAKTKPREEQYNSTYRVVSVLTVLHQDWLNGKEYKCKVSNKALPAPIEKTISKAKGQPREPQVYTLPPSREEMTKNQVSLTCLVKGFYPSDIAVEWESNGQPENNYKTTPPVLDSDGSFFLYSKLTVDKSRWQQGNVFSCSVMHEALHNHYTQKSLSLSPGK
light: DIQMTQSPSSLSASVGDRVTITCKASQNINKHLDWYQQKPGKAPKLLIYFTNNLQTGVPSRFSGSGSGTDFTLTISSLQPEDFATYYCFQYNQGWTFGGGTKVEIKRTVAAPSVFIFPPSDEQLKSGTASVVCLLNNFYPREAKVQWKVDNALQSGNSQESVTEQDSKDSTYSLSSTLTLSKADYEKHKVYACEVTHQGLSSPVTKSFNRGEC
B16: IL33-167 (antibody, human IgG1, kappa)
heavy: B15 heavy with A50S, E62D
light: B15 light with Q93N
B17: 9B3-563 (antibody, human IgG1, kappa, V domains shown)
VH: EVQLVETGGGLVQPGRSLKLSCVASGFTFSNYWMYWIRQAPGMGLEWVSSINNDGGNTYYLDSVKGRFTISRNNAENTVYLQMNSLRSEDTATYYCAKGHYYYSSYSFAYWGQGTLVTVSS
VL: DIQMTQSPSVLSASVGDRVTLSCKASHNINKHLDWYQQKVGEAPKLLIYFTNNLQTGIPSRFSGSGSGTDYTLTISSLQPEDVATYFCFQYNSGWTFGQGTKVEIKR
B18: 9B3-79 (antibody, human IgG1, kappa, V domains shown)
VH: B17 VH with K98R, S104T
VL: B17 VL
B19: 9B3-15 (antibody, human IgG1, kappa, V domains shown)
VH: B17 VH with Y102S, Y110N
VL: B17 VL
B20: 9B3-13 (antibody, human IgG1, kappa, V domains shown)
VH: B17 VH with K98R, S104N, Y110H
VL: B17 VL
B21: 9B3-31v2 (antibody, human IgG1, kappa, V domains shown)
VH: B17 VH with Y110F
VL: B17 VL
B22: 9B3-7 (antibody, human IgG1, kappa, V domains shown)
VH: B17 VH with H100R
VL: B17 VL
B23: 9B3-2A (antibody, human IgG1, kappa, V domains shown)
VH: B17 VH with Y102S, A109G
VL: B17 VL
B24: 9B3-3 (antibody, human IgG1, kappa, V domains shown)
VH: B17 VH with Y102S, F108I, A109D
VL: B17 VL
B25: 9B3-1 (antibody, human IgG1, kappa, V domains shown)
VH: B17 VH with F108L, A109G
VL: B17 VL
B26: 9B3-36 (antibody, human IgG1, kappa, V domains shown)
VH: B17 VH with S104T
VL: B17 VL
B27: 9B3-2B (antibody, human IgG1, kappa, V domains shown)
VH: B17 VH with A97V, Y102S, F108I, A109D
VL: B17 VL
B28: 9B3-5 (antibody, human IgG1, kappa, V domains shown)
VH: B17 VH with Y102S, S104T, A109G
VL: B17 VL

Molecular target: T1, human IL-33 (mm2)
Test: cell-based or functional assay

Binder	IC50, HEK293 ST2 NFkB	IC50, whole blood mm2	IC50, PBMC mm2
B1	0.087 nM	0.014 nM	
B2	0.109 nM	0.012 nM	
B3	0.059 nM	0.006 nM	0.004 nM
B4	0.171 nM	0.025 nM	
B5	0.118 nM	0.016 nM	
B6	0.116 nM	0.004 nM	0.004 nM
B7	0.176 nM	0.005 nM	
B8	0.188 nM	0.01 nM	0.007 nM
B9	0.15 nM	0.006 nM	
B10	0.147 nM	0.017 nM	
B11	0.109 nM	0.014 nM	
B12	0.145 nM	0.012 nM	
B13	0.071 nM	0.009 nM	
B14	0.201 nM	0.012 nM	
B15	0.131 nM	0.007 nM	0.004 nM
B16	0.049 nM	0.008 nM	0.001 nM

Molecular target: T2, cynomolgus monkey IL-33 (cys mut)
Test: cell-based or functional assay

Binder	IC50, HEK293 ST2 NFkB cyno IL-33
B1	0.122 nM
B2	0.144 nM
B3	0.086 nM
B4	0.239 nM
B5	0.161 nM
B6	0.087 nM
B7	0.218 nM
B8	0.133 nM
B9	0.282 nM
B10	0.351 nM
B11	0.264 nM
B12	0.216 nM
B13	0.176 nM
B14	0.222 nM
B15	0.125 nM
B16	0.062 nM

Molecular target: T1, human IL-33 (mm2)
Test: BIAcore, IgG captured by anti-human Fc, 125 nM IL-33 (mm2)
Experimental: Binding to human and cynomolgus monkey IL-33 was measured by surface plasmon resonance using a BIAcore T200 instrument. An anti-human Fc antibody was immobilized on a CM5 chip, and anti-IL-33 antibodies were captured.

Binder	koff
B17	0.00109 s⁻¹
B18	0.000543 s⁻¹
B19	0.000479 s⁻¹
B20	0.000326 s⁻¹
B21	0.000706 s⁻¹
B22	0.000589 s⁻¹
B23	0.000437 s⁻¹
B24	0.000424 s⁻¹
B25	0.000569 s⁻¹
B26	0.000289 s⁻¹
B27	0.000506 s⁻¹
B28	0.000325 s⁻¹

Molecular target: T1, human IL-33 (mm2)
Test: cell-based or functional assay
Remark: another data set of the same source

Binder	estimated IC50, HEK293 ST2 NFkB
B17	0.177 nM
B18	0.063 nM
B19	0.101 nM
B20	0.175 nM
B21	0.202 nM
B22	0.069 nM
B23	0.056 nM
B24	0.048 nM
B25	0.039 nM
B26	0.251 nM
B27	0.048 nM
B28	0.106 nM
